According to article PMC11928522:

Assays:
GFP-MORF8 (condensates) = target: T1, GFP-MORF8 (condensates) (Arabidopsis thaliana, UniProt Q9LKA5 1-395); experiment: condensate partitioning
T1 sequence: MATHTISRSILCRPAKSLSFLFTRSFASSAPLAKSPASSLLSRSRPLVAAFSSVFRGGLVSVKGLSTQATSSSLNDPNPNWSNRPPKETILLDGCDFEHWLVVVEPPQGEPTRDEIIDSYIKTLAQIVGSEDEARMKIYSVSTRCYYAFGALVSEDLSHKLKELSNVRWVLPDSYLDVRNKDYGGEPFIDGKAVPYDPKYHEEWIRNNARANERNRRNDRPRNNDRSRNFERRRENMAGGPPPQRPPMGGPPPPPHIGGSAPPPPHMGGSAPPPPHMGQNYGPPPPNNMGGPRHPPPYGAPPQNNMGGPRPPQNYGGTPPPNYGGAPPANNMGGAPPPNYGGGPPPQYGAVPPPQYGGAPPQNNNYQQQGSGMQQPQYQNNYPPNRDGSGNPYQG

[1] = target: T2, LPA66-BFP;MBP-GFP-MORF8 (diffuse) (Arabidopsis thaliana;Arabidopsis …, UniProt Q9FI80;Q9LKA5 35-515;1-395, |); experiment: EMSA
T2 sequence 1: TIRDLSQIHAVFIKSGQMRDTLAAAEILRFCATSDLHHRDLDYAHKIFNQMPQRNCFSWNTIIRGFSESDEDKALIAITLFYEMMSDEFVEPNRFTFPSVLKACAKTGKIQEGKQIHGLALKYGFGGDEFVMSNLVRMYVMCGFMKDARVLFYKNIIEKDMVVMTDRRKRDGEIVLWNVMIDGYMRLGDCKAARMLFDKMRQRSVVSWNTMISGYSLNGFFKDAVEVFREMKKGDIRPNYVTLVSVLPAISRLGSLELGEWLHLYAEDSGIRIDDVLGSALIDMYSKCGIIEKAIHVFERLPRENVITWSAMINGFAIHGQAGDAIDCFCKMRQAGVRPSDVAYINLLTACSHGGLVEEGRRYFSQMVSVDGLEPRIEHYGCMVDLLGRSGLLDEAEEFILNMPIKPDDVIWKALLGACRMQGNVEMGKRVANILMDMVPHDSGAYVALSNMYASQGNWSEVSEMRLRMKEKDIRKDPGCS
T2 sequence 2: T1 sequence

LPA66-BFP = target: T3, LPA66-BFP (Arabidopsis thaliana, UniProt Q9FI80 35-515); experiment: EMSA after sedimentation
T3 sequence: T2 sequence 1

Measured: binding result

UAGCUGUACCUACCGUUUCUUUU (ssRNA) [psbF RNA probe]
binds: GFP-MORF8 (condensates) | [1] | LPA66-BFP
